Results from publication PMC11228396.

Biological target: Stabilized soluble Omicron BA.1 spike (SARS-CoV-2)
Test: cryo-EM structure

Stabilized soluble Omicron BA.1 spike (domain or fragment)
stoichiometry N: 3
